{
  "source": "patent US20170334979A1",
  "about": "(published 2017)",
  "binders": {"B1": {"name": "cynomolgus monkey serum albumin (other)", "chain": "DTHKSEVAHRFKDLGEEHFKGLVLVAFSQYLQQCPFEEHVKLVNEVTEFAKTCVADESAENCDKSLHTLFGDKLCTVATLRETYGEMADCCAKQEPERNECFLQHKDDNPNLPPLVRPEVDVMCTAFHDNEATFLKKYLYEVARRHPYFYAPELLFFAARYKAAFAECCQAADKAACLLPKLDELRDEGKASSAKQRLKCASLQKFGDRAFKAWAVARLSQKFPKAEFAEVSKLVTDLTKVHTECCHGDLLECADDRADLAKYMCENQDSISSKLKECCDKPLLEKSHCLAEVENDEMPADLPSLAADYVESKDVCKNYAEAKDVFLGMFLYEYARRHPDYSVMLLLRLAKAYEATLEKCCAAADPHECYAKVFDEFQPLVEEPQNLVKQNCELFEQLGEYKFQNALLVRYTKKVPQVSTPTLVEVSRNLGKVGAKCCKLPEAKRMPCAEDYLSVVLNRLCVLHEKTPVSEKVTKCCTESLVNRRPCFSALELDEAYVPKAFNAETFTFHADMCTLSEKEKQVKKQTALVELVKHKPKATKEQLKGVMDNFAAFVEKCCKADDKEACFAEEGPKFVAASQAALA"}},
  "assay_in_all_cases": "purified sdAb binding",
  "key": {"mouse serum albumin": {"target": "mouse serum albumin (mouse, UniProt P07724 25-608)", "sequence (P07724 25-608)": "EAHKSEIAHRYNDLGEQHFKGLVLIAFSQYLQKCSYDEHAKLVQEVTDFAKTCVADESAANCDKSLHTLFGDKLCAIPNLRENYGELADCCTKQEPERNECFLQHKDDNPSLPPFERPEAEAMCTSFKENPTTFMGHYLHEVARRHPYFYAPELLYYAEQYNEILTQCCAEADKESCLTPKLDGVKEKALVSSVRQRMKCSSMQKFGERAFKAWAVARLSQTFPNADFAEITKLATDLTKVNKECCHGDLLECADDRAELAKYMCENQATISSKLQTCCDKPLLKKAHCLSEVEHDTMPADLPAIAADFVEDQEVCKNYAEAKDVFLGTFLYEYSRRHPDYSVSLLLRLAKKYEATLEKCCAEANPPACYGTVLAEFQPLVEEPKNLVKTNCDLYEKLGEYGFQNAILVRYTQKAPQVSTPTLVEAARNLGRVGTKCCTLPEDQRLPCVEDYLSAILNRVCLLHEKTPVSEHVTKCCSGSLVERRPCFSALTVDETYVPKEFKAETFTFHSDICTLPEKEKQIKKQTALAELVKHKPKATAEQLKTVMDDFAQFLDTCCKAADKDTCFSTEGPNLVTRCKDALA"}, "[1]": {"target": "B1"}, "human serum albumin": {"target": "human serum albumin (human, UniProt P02768 25-609)"}, "10GE": {"target": "10GE"}},
  "data": [
    {"binder": "7A (protein) EVQLVESGGGLVQPGNSLRLSCAASGFTFSKFGMSWVRQAPGKGLEWVSSISGSGADTLYADSLKGRFTISRDNAKTTLYLQMNSLRPEDTAVYYCTIGGSLSKSSQGTLVTVSS", "values": [
      {"measurement": "Kd", "setting": "mouse serum albumin", "value": 12.3, "unit": "nM"},
      {"measurement": "Kd", "setting": "[1]", "value": 1.7, "unit": "nM"},
      {"measurement": "Kd", "setting": "human serum albumin", "value": 1.9, "unit": "nM"}
    ]},
    {"binder": "B1", "values": [
      {"measurement": "Kd", "setting": "10GE", "value": 1.6, "unit": "nM"}
    ]}
  ]
}
